Laboratory results from US20180015144A1, “AGONISTS OF THE NOGO-A S1PR PATHWAY FOR THE TREATMENT OF GLIOBLASTOMA” (UNIVERSITAT ZURICH, priority 2015, published 2018).

Legend:
GBM MVECs = test: Transwell migration assay (VEGF-A + fibronectin induced); assay type: cell-based, human; conditions: protein coated on the underside of the insert, different concentrations
Method: For the migration assays, the undersides of 24-well plate inserts (FluoroBlock, BD Falcon) were coated with 0.5 ml PBS containing 10 μg*ml^−1 fibronectin (recombinant human fibronectin, Biopur AG) and different concentrations of Nogo-A Delta 21, Nogo-A Delta 20 and Nogo-66 (R&D Systems) and incubated for 1 h at 37° C. Endothelial cells (GBM MVECs) were starved in migration medium (DMEM+0.25% BSA) 4 h before detachment with accutase (PAA Laboratories). Cells were resuspended in migration medium (1 Mio ml^−1) and labeled with calcein AM (Molecular Probes, 4 μg ml^−1), followed by washing with HBSS and resuspending in migration medium (125,000 cells ml^−1). The coated inserts were washed and the bottom chamber was prepared by adding migration medium with or without human VEGF-A (PeproTech Inc., 10 ng ml^−1). The inserts were then put in an empty 24-well plate (BD Falcon) and calcein AM-labeled endothelial cells (50,000 cells per insert) were added.
The loaded inserts were transferred to the prepared cluster plate and incubated at 37° C., 5% CO2 for 4 h. A cell titration plate was prepared by adding different cell numbers (50,000/25,000/12,500/6,250/3,125/1,563/782 cells per well) in triplicates in 1.2 ml migration medium and incubated in parallel. The fluorescence was measured after 4 h by a cytofluorometer (Tean Infinite Pro 200) and the number of migrated cells was calculated based on the titration curve.
To ask how co-signaling of Nogo-A Delta 20/Nogo-66 coated to the underside of transwell inserts and of its receptors affect cell migration, calcein-AM labeled GBM MVECs were incubated for 1 h with the pharmacological blockers of-the Nogo-A Delta 20 receptor S1PR2 (JTE-013, 1 μM, 10 μM), with the pharmacological blocker of S1PR1 and S1PR3 (VPC 23019, 10 μM) (Tocris Bioscience), and with the competitive inhibitor of the Nogo-66 receptor NgR1 (NEP1-40, 4.6 μg/ml) during calcein-AM labeling. After washing, the cell medium was again supplied with these pharmacological blockers, prior to cell addition in the upper chamber of the transwell insert.

VEGFR2 = VEGFR2 phosphorylation at Tyr1175 in HUVECs, immunofluorescent antibody staining; assay type: cell-based; conditions: protein 1 μM
Method: For the different treatment conditions HUVECs were seeded on 8 well dishes (LabTek chamber slides, immunofluorescence) or 6 well dishes (western blot) and left for 2 to 3 days until the culture was confluent. After a 4 h starvation of the cells in EBM-2 medium (Lonza, Switzerland), the cells were treated with Nogo-A Delta 20 (1 μM), Nogo-A Delta 20 (1 μM) and VEGF-A ([…]), Nogo-A Delta 21 (1 μM), Nogo-A Delta 21 (1 μM) and VEGF ([…]), or VEGF-A alone ([…]) in EBM-2 medium, respectively. The cells were either fixed in 4% formaldehyde for 15 min at room temperature or lysed in RIPA buffer. After fixation, HUVECs were stained with anti-phosphoVEGFR2 antibody (pTyr1175, #2478, Cell Signaling), F-actin (phalloidin Alexa Fluor 633, Molecular Probes) and DAPI. The same antibodies were used to detect VEGFR2 and phosphoVEGFR2 in western blot.

GBM MVEC = test: Mean traction forces of adhered cells on nanopillars coated with Nogo-A proteins; assay type: cell-based, human; conditions: protein coated on nanopillars
Method: For time-lapse- and force generation experiments, Vybrant/Dil (Invitrogen, 1:200)-labeled GBM MVEC (10^4 cells ml^−1) were added onto the nanopillar structures. The imaging process was started 1 h after seeding GBM MVEC on nanopillars. To calculate the traction force exerted by GBM MVEC on the nanopillar surface, the deflection of the nanopillar tip was imaged with confocal microscopy using a Leica confocal microscope SP5 with a63x, oil immersion, NA1.43 objective.
During image acquisition, GBM MVEC were kept at 37° C. and 10% CO2. Following laser wavelengths were used to acquire images of nanopillar arrays and Di-labeled cells: 488 nm (nanopillar structures) and 546 nm (Dil).
To quantitatively address the effects of coated Nogo-A proteins on adhesion between endothelial cells (GBM MVEC) and nanopillars, nanopillars were coated with Nogo-A Delta 20, Nogo-A Delta 21, or Fibronectin (blank condition).
To calculate the total force applied by endothelial cells (GBM MVEC) on the substrates, the average displacement of 800-5000 nanopillars per single cell was used. Single GBM MVEC were imaged for a total time of 20 min, with a scanning ratio of 30 s per frame. For each condition, at least three individual GBM MVEC were analyzed.
To address the role of Nogo-A receptors, endothelial cells were pre-incubated for 30 min before seeding with the pharmacological blocker of S1PR2 (JTE-013, 10 μM) (Tocris Bioscience), with the pharmacological blocker of S1PR1 and S1PR3 (VPC 23019, 10 μM) (Tocris Bioscience), or with the pharmacological blocker of S1PR1, 3, 4, and 5 (FTY720, 10 μM) (Tocris Bioscience).
To quantitatively address the acute effects of soluble Nogo-A proteins on GBM MVEC retraction, Dil-labeled endothelial cells on nanopillars coated with 25 μg*ml^−1 human Fibronectin were treated 30 min after cell seeding with soluble Nogo-A Delta 20 and Nogo-A Delta 21 at 1 μM. Single GBM MVEC were then imaged for a total time of 1.5 h, with a scanning ratio of 30 s per frame. The nanopillar displacements were recorded as sequence images when the GBM MVEC applied forces on the nanopillar surface. For each condition, at least three individual GBM MVEC were analyzed. To address the role of Nogo-A receptors, endothelial cells were cultured for 30 min before incubating the cells for another 30 min with the pharmacological blocker of S1PR2 (JTE-013, 10 μM) (Tocris Bioscience), with the pharmacological blocker of S1PR1 and S1PR3 (VPC 23019, 10 μM) (Tocris Bioscience), or with the pharmacological blocker of S1PR1, 3, 4, and 5 (FTY720, 10 μM) (Tocris Bioscience). Then soluble Nogo-A Delta 20 (at 1 μM) or Nogo-A Delta 21 (at 1 μM) was added and lamellipodia and filopodia were imaged for 1h. The displacements (x) of the nanopillar tips induced by whole endothelial cells (for experiments with coated Nogo-A proteins) or by single endothelial filopodia (for experiments with soluble Nogo-A proteins) were measured using the program Diatrack (Powerful Particle Tracking, Semasopht). Finally, corresponding traction forces were calculated using the formula F=k*x, where k represents the spring constant of the nanopillars, 78.76 nN/μm.

B1: Nogo-A Delta 20: Nogo-A specific inhibitory domain, 182 aa; human aa 567-748 (SEQ ID NO 002), rat aa 544-725 (SEQ ID NO 001) (protein, UniProt Q9NQC3 567-748, looked up, fragment)
chain: TGTKIAYETKMDLVQTSEVMQESLYPAAQLCPSFEESEATPSPVLPDIVMEAPLNSAVPSAGASVIQPSSSPLEASSVNYESIKHEPENPPPYEEAMSVSLKKVSGIKEEIKEPENINAALQETEAPYISIACDLIKETKLSAEPAPDFSDYSEMAKVEQPVPDHSELVEDSSPDSEPVDLF
- VEGF+FN-induced migration (GBM MVECs): dose-dependently inhibited
- phosphoVEGFR2 after 30 min (VEGFR2; with VEGF-A for 30 min): no phosphoVEGFR2 was detectable
- VEGFR2 phosphorylation at Tyr1175 compared to Nogo-A Delta 21 conditions (VEGFR2; with VEGF-A, peak after 15 min): considerably lower
- mean traction forces and pillar displacements induced by adhered cells (change) (GBM MVEC): reduced
- mean traction forces on the underlying nanopillars (GBM MVEC): ~12 nN
